Measured values taken from publication PMC5864754, “Cryo-EM structure of the polycystic kidney disease-like channel PKD2L1” (Nature Communications, 2018).

Molecular target: the molecule itself
Experiment: cryo-EM structure; purified PKD2L1 (64-629) in amphipols, 20 mM HEPES pH 7.5, 150 mM NaCl, about 5 mg/ml; C4 symmetry applied; 3.38 Å

B1: PKD2L1 (residues 64–629) (domain or fragment, mouse, UniProt A2A259 64-629, looked up)
chain: TLVSSCCLHICRSIRGLWGTTLTENTAENRELYVKTTLRELVVYIVFLVDICLLTYGMTSSSAYYYTKVMSELFLHTPSDSGVSFQTISSMSDFWDFAQGPLLDSLYWTKWYNNQSLGRGSHSFIYYENLLLGAPRLRQLRVRNDSCVVHEDFREDILNCYDVYSPDKEDQLPFGPQNGTAWTYHSQNELGGSSHWGRLTSYSGGGYYLDLPGSRQASAEALQGLQEGLWLDRGTRVVFIDFSVYNANINLFCILRLVVEFPATGGTIPSWQIRTVKLIRYVNNWDFFIVGCEVVFCVFIFYYVVEEILEIHLHRLRYLSSVWNILDLVVILLSIVAVGFHIFRTLEVNRLMGKLLQQPDTYADFEFLAFWQTQYNNMNAVNLFFAWIKIFKYISFNKTMTQLSSTLARCAKDILGFAIMFFIVFFAYAQLGYLLFGTQVENFSTFVKCIFTQFRIILGDFDYNAIDNANRILGPVYFVTYVFFVFFVLLNMFLAIINDTYSEVKEELAGQKDQLQLSDFLKQSYNKTLLRLRLRKERVSDVQKVLKGGEPEIQFEDFTSTLRELG
modifications: oligosaccharides identified on N241 and N207; glycosylation site N177
notes: Mus musculus PKD2L1, residues 64-629; lacks the EF hand and the coiled-coil domain; residues 101-563 are visible in the structure; Homotetrameric channel; Cloned in a pCAG vector; also called PKD2L1_64–629; truncated PKD2L1; source: exchanged into amphipols
stoichiometry N: 4
